Experimental data published in the supplement of paper PMC7877785.
± gives the uncertainty stated by the source.

Assay: self-splicing fitness, log relative to wild type (ln ratio); higher = more splicing; Tetrahymena group I intron in knt gene, E. coli kanamycin selection, DiMSum; sequences stand for … in CUCUCU…GGAGGGAAAAGUUAUCAGGCAUGCACCUGGUAGCUAGUCUUUAAACCAAUAGAUUGCAUCGGUUUAAAAGGCAAGACCGUCAAAUUGCGGGAAAGGGGUCAACAGCCGUUCAGUACCAAGUCUCAGGGGAAACUUUGAGAUGGCCUUGCAAAGGGUAUGGUAAUAAGCUGACGGACAUGGUCCUAACCACGCAGCCAAGUCCUAAGUCAACAGAUCUUCUGUUGAUAUGGAUGCAGUUCACAGACUAAAUGUCGGUCGGGGAAGAUGUAUUCUUCUCAUAAGAUAUAGUCGGACCUCUCCUUAAUGGGAGCUAGCGGAUGAAGUGAUGCAACACUGGAGCCGCUGGGAACUAAUUUGUAUGCGAAAGUAUAUUGAUUAGUUUUGGAGUACUCGUGGUCG
Outline: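 DiMSum derived fitness as the error-weighted combination of fold changes across replicates, kanamycin versus no kanamycin, normalised to wild type. E. coli BL21(DE3) held the library, which randomised all eight P1ex-region intron nucleotides within the knt kanamycin-resistance gene on pET-22b(+). Six replicate transformations grew overnight at 37°C or 30°C on LB agar with or without 25 μg/mL kanamycin, also containing 100 μg/mL carbenicillin, 50 μM IPTG and 0.2% rhamnose, and pooled colonies were amplicon-sequenced on an Illumina HiSeq 2500.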

| Sequence | self-splicing fitness (ln) (30 °C) | self-splicing fitness (ln) (37 °C) |
| --- | --- | --- |
| ACACAGCAAUAUUACGGACG | -0.635 ± 0.057 | 0.0496 ± 0.073 |
| ACACAGCAAUAUUACGGAUA | -2.87 ± 0.15 | -2.54 ± 0.15 |
| ACACAGCAAUAUUACGGCCU | -0.094 ± 0.086 | -0.0787 ± 0.12 |
| ACACAGCAAUAUUACGGGAC | -3.3 ± 0.14 | -2.12 ± 0.14 |
| ACACAGCAAUAUUACGGGGC | -2.8 ± 0.16 | -3.16 ± 0.19 |
| ACACAGCAAUAUUACGGUAA | -3.67 ± 0.21 | -1.18 ± 0.1 |
| ACACAGCAAUAUUACGUCAG | -3.58 ± 0.14 | -1.67 ± 0.12 |
| ACACAGCAAUAUUACGUGCG | -0.45 ± 0.044 | -0.606 ± 0.063 |
| ACACAGCAAUAUUACGUUCC | -2.17 ± 0.088 | -1.29 ± 0.1 |
| ACACAGCAAUAUUACGUUUA | -2.9 ± 0.11 | -1.99 ± 0.088 |
| ACAGAGCAAUAUUACGAAAC | -2.71 ± 0.29 |  |
| ACAGAGCAAUAUUACGAGCG | -3.08 ± 0.14 | -2.51 ± 0.19 |
| ACAGAGCAAUAUUACGAUAC | -1.87 ± 0.35 |  |
| ACAGAGCAAUAUUACGAUCA | -3.4 ± 0.28 |  |
| ACAGAGCAAUAUUACGAUGA | -1.49 ± 0.17 | -1.15 ± 0.16 |
| ACAGAGCAAUAUUACGCGCG | -2.69 ± 0.098 | -1.47 ± 0.1 |
| ACAGAGCAAUAUUACGCUGG | -3.47 ± 0.14 | -2.53 ± 0.16 |
| ACAGAGCAAUAUUACGGAAA | -3.38 ± 0.36 | -2.81 ± 0.38 |
| ACAGAGCAAUAUUACGGAGU | -3.05 ± 0.23 | -3.24 ± 0.35 |
| ACAGAGCAAUAUUACGGAUC | -3.24 ± 0.4 | -1.85 ± 0.26 |
| ACAGAGCAAUAUUACGGAUU | -3.67 ± 0.18 | -1.84 ± 0.14 |
| ACAGAGCAAUAUUACGGCAG | -2.25 ± 0.14 | -2.45 ± 0.22 |
| ACAGAGCAAUAUUACGGCCG | -2.2 ± 0.27 | -1.33 ± 0.25 |
| ACAGAGCAAUAUUACGGCGC | -1.6 ± 0.14 | -0.0642 ± 0.18 |
| ACAGAGCAAUAUUACGGUGA | -2.32 ± 0.13 | -2.41 ± 0.21 |

| Sequence | self-splicing fitness (ln) (30 °C) | self-splicing fitness (ln) (37 °C) |
| --- | --- | --- |
| ACAGAGCAAUAUUACGGUUA | -2.77 ± 0.21 | -3.05 ± 0.33 |
| ACAGAGCAAUAUUACGUAUC | -4.32 ± 0.29 | -1.46 ± 0.14 |
| ACAGAGCAAUAUUACGUCAC | -3.39 ± 0.26 | -2.43 ± 0.41 |
| ACAGAGCAAUAUUACGUCCA | -2.34 ± 0.2 | -2.25 ± 0.26 |
| ACAGAGCAAUAUUACGUGUU | -2.64 ± 0.12 | -2.51 ± 0.18 |
| ACAGAGCAAUAUUACGUUCG | -2.06 ± 0.11 | -0.493 ± 0.12 |
| ACAGAGCAAUAUUACGUUGC | -2.78 ± 0.18 |  |
| ACAGAGCAAUAUUACGUUGU | -3.88 ± 0.2 | -2.34 ± 0.18 |
| ACAUAGCAAUAUUACGAAAA | -2.4 ± 0.25 | -3.31 ± 0.3 |
| ACAUAGCAAUAUUACGAAAC | -3.95 ± 0.26 | -2.45 ± 0.33 |
| ACAUAGCAAUAUUACGAAAG | -3.36 ± 0.22 | -2.06 ± 0.23 |
| ACAUAGCAAUAUUACGAAAU | -3.43 ± 0.19 | -2.75 ± 0.26 |
| ACAUAGCAAUAUUACGAACC | -1.16 ± 0.13 | -1.13 ± 0.2 |
| ACAUAGCAAUAUUACGAACU | -0.612 ± 0.1 | 0.274 ± 0.12 |
| ACAUAGCAAUAUUACGACAC | -1.62 ± 0.15 | -1.29 ± 0.21 |
| ACAUAGCAAUAUUACGACAU | -0.718 ± 0.011 | -0.22 ± 0.032 |
| ACAUAGCAAUAUUACGAGCC | -3.94 ± 0.36 | -2.42 ± 0.28 |
| ACAUAGCAAUAUUACGCCAC | -3.57 ± 0.27 | -0.959 ± 0.17 |
| ACAUAGCAAUAUUACGCCGC |  | -2.65 ± 0.4 |
| ACAUAGCAAUAUUACGCCUC |  | -1.29 ± 0.24 |
| ACAUAGCAAUAUUACGGACU | -0.288 ± 0.057 | 0.36 ± 0.074 |
| ACAUAGCAAUAUUACGGAGU | -3.73 ± 0.12 | -2.55 ± 0.13 |
| ACAUAGCAAUAUUACGGAUU | -3.42 ± 0.13 | -1.68 ± 0.12 |
| ACAUAGCAAUAUUACGGCAA | -0.85 ± 0.09 | -0.569 ± 0.084 |
| ACAUAGCAAUAUUACGGCAC | -1.56 ± 0.11 | -1.2 ± 0.15 |

| Sequence | self-splicing fitness (ln) (30 °C) | self-splicing fitness (ln) (37 °C) |
| --- | --- | --- |
| ACAUAGCAAUAUUACGGCCU | -0.828 ± 0.074 | 0.129 ± 0.1 |
| ACAUAGCAAUAUUACGGCGU | -0.355 ± 0.07 | 0.246 ± 0.081 |
| ACAUAGCAAUAUUACGGUAU | -3.6 ± 0.11 | -1.77 ± 0.11 |
| ACAUAGCAAUAUUACGGUGU | -3.8 ± 0.21 | -3.54 ± 0.3 |
| ACAUAGCAAUAUUACGUAAC | -3.65 ± 0.23 | -3.2 ± 0.35 |
| ACAUAGCAAUAUUACGUAAU | -2.87 ± 0.11 | -1.93 ± 0.14 |
| ACAUAGCAAUAUUACGUACG | -2.39 ± 0.12 | -1.87 ± 0.16 |
| ACAUAGCAAUAUUACGUAGA | -3.71 ± 0.15 | -1.62 ± 0.12 |
| ACAUAGCAAUAUUACGUAUG | -2.67 ± 0.12 | -1.73 ± 0.12 |
| ACAUAGCAAUAUUACGUCUA | -2.05 ± 0.096 | -1.1 ± 0.083 |
| ACAUAGCAAUAUUACGUUCU | -1.19 ± 0.11 | -0.553 ± 0.12 |
| ACCAAGCAAUAUUACGAAAA | -3.44 ± 0.2 | -2.91 ± 0.23 |
| ACCAAGCAAUAUUACGAACC | -1.62 ± 0.1 | -0.978 ± 0.12 |
| ACCAAGCAAUAUUACGACCG | -1.17 ± 0.096 | -0.119 ± 0.12 |
| ACCAAGCAAUAUUACGACGC | -0.493 ± 0.074 | 0.0307 ± 0.098 |
| ACCAAGCAAUAUUACGACUU | -3.83 ± 0.19 | -1.85 ± 0.12 |
| ACCAAGCAAUAUUACGAUAC | -2.83 ± 0.32 | -1.99 ± 0.3 |
| ACCAAGCAAUAUUACGAUCG | -1.43 ± 0.067 | -0.395 ± 0.093 |
| ACCAAGCAAUAUUACGCCAU | -0.983 ± 0.12 | -1.56 ± 0.16 |
| ACCAAGCAAUAUUACGCCCC | -1.37 ± 0.35 | 0.27 ± 0.24 |
| ACCAAGCAAUAUUACGCCGC | -3.04 ± 0.24 | -0.837 ± 0.18 |
| ACCAAGCAAUAUUACGCCUA | -1.04 ± 0.11 | -0.201 ± 0.11 |
| ACCAAGCAAUAUUACGGACG | -1.09 ± 0.069 | -0.0232 ± 0.083 |
| ACCAAGCAAUAUUACGGAGC | -3.33 ± 0.23 | -3.2 ± 0.33 |
| ACCAAGCAAUAUUACGGCAC | -0.797 ± 0.091 | -0.913 ± 0.11 |

| Sequence | self-splicing fitness (ln) (30 °C) | self-splicing fitness (ln) (37 °C) |
| --- | --- | --- |
| ACCAAGCAAUAUUACGGCGU | -1 ± 0.05 | 0.0505 ± 0.064 |
| ACCAAGCAAUAUUACGGGCU | -1.12 ± 0.058 | -1.16 ± 0.083 |
| ACCAAGCAAUAUUACGGGGC | -3.74 ± 0.18 | -2.1 ± 0.14 |
| ACCAAGCAAUAUUACGUACC | -1.57 ± 0.17 | -1.32 ± 0.17 |
| ACCAAGCAAUAUUACGUAGA | -2.66 ± 0.14 | -2.04 ± 0.16 |
| ACCAAGCAAUAUUACGUCAG | -3.58 ± 0.15 | -1.56 ± 0.1 |
| ACCAAGCAAUAUUACGUCUU | -4.21 ± 0.14 | -2.59 ± 0.12 |
| ACCAAGCAAUAUUACGUGUG | -2.06 ± 0.048 | -1.1 ± 0.064 |
| ACCAAGCAAUAUUACGUUCU | -1.56 ± 0.06 | -0.915 ± 0.076 |
| ACCAAGCAAUAUUACGUUUU | -3.36 ± 0.1 | -2.29 ± 0.096 |
| ACCCAGCAAUAUUACGAAUC | -2.13 ± 0.12 | -1.45 ± 0.16 |
| ACCCAGCAAUAUUACGAAUG | -3.41 ± 0.13 | -1.2 ± 0.13 |
| ACCCAGCAAUAUUACGAGUC | -4.16 ± 0.15 | -2.3 ± 0.15 |
| ACCCAGCAAUAUUACGAUAA | -2.15 ± 0.091 | -0.0251 ± 0.098 |
| ACCCAGCAAUAUUACGAUGA | -1.43 ± 0.09 | -0.256 ± 0.088 |
| ACCCAGCAAUAUUACGCAUG | -4.1 ± 0.15 | -2.58 ± 0.15 |
| ACCCAGCAAUAUUACGCCUC | -1.05 ± 0.084 | -0.0787 ± 0.11 |
| ACCCAGCAAUAUUACGCGCC | -0.907 ± 0.064 | 0.136 ± 0.094 |
| ACCCAGCAAUAUUACGCUUC | -2.01 ± 0.076 | -1 ± 0.095 |
| ACCCAGCAAUAUUACGGAAG | -2.49 ± 0.091 | -1.02 ± 0.1 |
| ACCCAGCAAUAUUACGGACG | -1.1 ± 0.07 | -0.9 ± 0.08 |
| ACCCAGCAAUAUUACGGAGA | -0.451 ± 0.048 | 0.122 ± 0.063 |
